# Experimental data as given in US20150086555A1.
# B1: TCN-540 (5060_F05) (antibody, V domains shown)
# VH: QVQLVQSGGGVVQPGRSLRLSCAASGFTFSSYAMHWVRQAPGKGLEWVAIISYDGNDQYYTDSVKGRFTISRDSSKVYLQMHRLRPEDTAVYYCAKEFETSGYFHGSFDYWGQGILVTVSS
# VL: QSALTQPASVSGSPGQSITISCTGTSSDVGGYNYVSWYQQHPGKAPKLLIYEVTNWPSGVSNRFSGSKSGNTASLTISGLQAEDEADYYCSSYAGSSTWVFGGGTRVTVL
# B2: TCN-527 (5086_C06) (antibody, V domains shown)
# VH: QVQLQESGPGLVKPSETLSLNCAVSGGSISNYYWSWIRQPPGKGLEWIGYISYNGRPKYNPSLTSRVTISVDTSKDQFSLELRSVTAADTALYYCARETRFGELLSPYDAFEIWGQGTMVTVSS
# VL: DIQMTQSPSSLSASVGDRVTMTCRASQNIRSYLNWYQQRPGTAPKLLIYAASTLHSGVPSRFSGGGSGTDFTLTINNLQPEDFASYYCQQSYDNPQTFGQGTKVEIK
# B3: TCN-528 (5087_P17) (antibody, V domains shown)
# VH: QVQLVQSGSEVKKPGASVKVSCKASGYTFTNYDINWIRQAPGQGLEWMGWINPNSGTTGSAQRFQGRVTITVDTSITTVYMELSSLRSDDTAIYYCARGRELLRLQHFLTDSQSERRDCFDPWGQGTLVTVSS
# VL: DIQMTQSPSSLSASVGDRVTITCRANQDIGIYLNWYQQNPGKVPKLLLHGASSLQGGVPSRFSASGSGTDFTLTIHSLQPEDLATYYCQQSRRLPYTFGQGTRVELK
# B4: TCN-536 (5095_N01) (antibody, V domains shown)
# VH: QVQLQQWGAGLLKPSETLSLTCAVYGGSFSVSGYYWSWIRQPPGRGLEWIGEISHGGSTNYNPSLKSRVTISVDTTKNQFSLRLSSVTAADTAVYYCARGTDPDTEVYCRVGNCAAFDYWGQGSLVTVSS
# VL: EIILAQSPGTLSLSPGERATLSCRASQFVSTRSLAWYQQRPGQAPRLLIYGASSRATGIPDRFSGSGSGTDFTLTISRLEPEDFAVYYCQHYGYSPRYAFGQGSKVEIK
# Target: recombinant homotrimeric HA A/Indonesia/5/05 H5N1 (Influenza A virus A/Indonesia/5/2005(H5N1))
# Test: protein microarray, purified IgG, trimeric HA
# Conditions: remark: other sources report otherwise
row,Binder,Trimeric HA Binding: RLU
1,B1,139 RLU
2,B2,29600 RLU
3,B3,27000 RLU

# Target: recombinant homotrimeric HA A/Solomon Islands/3/06 H1N1 (Influenza A virus A/Solomon Islands/3/2006(H1N1))
# Test: protein microarray, purified IgG, trimeric HA
# Conditions: remark: other sources report otherwise
row,Binder,Trimeric HA Binding: RLU
1,B1,9360 RLU
2,B2,22900 RLU
3,B3,25400 RLU

# Target: recombinant homotrimeric HA A/Hong Kong/2108/03 H9N2 (Influenza A virus A/HK/2108/2003(H9N2))
# Test: protein microarray, purified IgG, trimeric HA
# Conditions: remark: other sources report otherwise
row,Binder,Trimeric HA Binding: RLU
1,B1,164 RLU
2,B2,18700 RLU
3,B3,23600 RLU

# Target: recombinant homotrimeric HA A/Hong Kong/156/97 H5N1 (Influenza A virus A/Hong Kong/156/97 (H5N1))
# Test: protein microarray, purified IgG, trimeric HA
# Conditions: remark: other sources report otherwise
row,Binder,Trimeric HA Binding: RLU
1,B4,732 RLU
2,B1,465 RLU
3,B2,28600 RLU
4,B3,25700 RLU

# Target: recombinant homotrimeric HA A/chicken/Vietnam/NCVD-016/08 H5N1 (Influenza A virus A/chicken/Vietnam/NCVD-016/2008(H5N1))
# Test: protein microarray, purified IgG, trimeric HA
# Conditions: remark: other sources report otherwise
row,Binder,Trimeric HA Binding: RLU
1,B4,419 RLU
2,B1,338 RLU
3,B2,25200 RLU
4,B3,22700 RLU

# Target: recombinant homotrimeric HA A/Vietnam/1203/04 H5N1 (Influenza A virus A/VietNam/1203/2004(H5N1))
# Test: protein microarray, purified IgG, trimeric HA
# Conditions: remark: other sources report otherwise
row,Binder,Trimeric HA Binding: RLU
1,B4,749 RLU
2,B1,830 RLU
3,B2,19800 RLU
4,B3,24600 RLU

# Target: recombinant homotrimeric HA A/Egypt/3300-NAMRU3/08 H5N1 (Influenza A virus A/Egypt/3300-NAMRU3/2008(H5N1))
# Test: protein microarray, purified IgG, trimeric HA
# Conditions: remark: other sources report otherwise
row,Binder,Trimeric HA Binding: RLU
1,B4,4710 RLU
2,B1,860 RLU
3,B2,23900 RLU
4,B3,25600 RLU

# Target: recombinant homotrimeric HA A/Anhui/1/05 H5N1 (Influenza A virus A/Anhui/1/2005(H5N1))
# Test: protein microarray, purified IgG, trimeric HA
# Conditions: remark: other sources report otherwise
row,Binder,Trimeric HA Binding: RLU
1,B4,8860 RLU
2,B1,769 RLU
3,B2,24700 RLU
4,B3,28800 RLU

# Target: recombinant homotrimeric HA A/Japan/305/57 H2N2 (Influenza A virus A/Japan/305/1957(H2N2))
# Test: protein microarray, purified IgG, trimeric HA
# Conditions: remark: other sources report otherwise
row,Binder,Trimeric HA Binding: RLU
1,B4,771 RLU
2,B1,29000 RLU
3,B2,27000 RLU
4,B3,30100 RLU

# Target: recombinant homotrimeric HA A/California/4/09 H1N1 (Influenza A virus A/California/04/2009(H1N1))
# Test: protein microarray, purified IgG, trimeric HA
# Conditions: remark: other sources report otherwise
row,Binder,Trimeric HA Binding: RLU
1,B4,298 RLU
2,B1,266 RLU
3,B2,18600 RLU
4,B3,6810 RLU

# Target: recombinant homotrimeric HA A/northern shoveler/California/HKWF115/07 H6N4 (Influenza A virus A/northern shoveler/California/HKWF115/2007(H6N1))
# Test: protein microarray, purified IgG, trimeric HA
# Conditions: remark: other sources report otherwise
row,Binder,Trimeric HA Binding: RLU
1,B4,114 RLU
2,B1,76 RLU
3,B2,13200 RLU
4,B3,18000 RLU

# Target: recombinant homotrimeric HA A/Netherlands/219/03 H7N7 (Influenza A virus A/Netherlands/219/03(H7N7))
# Test: protein microarray, purified IgG, trimeric HA
# Conditions: remark: other sources report otherwise
row,Binder,Trimeric HA Binding: RLU
1,B4,186 RLU
2,B1,191 RLU
3,B2,15200 RLU
4,B3,16700 RLU

# Target: recombinant homotrimeric HA A/Wisconsin/67/05 H3N2 (Influenza A virus A/Wisconsin/67/2005(H3N2))
# Test: protein microarray, purified IgG, trimeric HA
# Conditions: remark: other sources report otherwise
row,Binder,Trimeric HA Binding: RLU
1,B4,24700 RLU
2,B1,6900 RLU
3,B2,600 RLU
4,B3,1060 RLU

# Target: recombinant homotrimeric HA A/South Carolina/1/18 H1N1 (Influenza A virus A/South Carolina/1/18 (H1N1))
# Test: protein microarray, purified IgG, trimeric HA
# Conditions: remark: other sources report otherwise
row,Binder,Trimeric HA Binding: RLU
1,B4,160 RLU
2,B1,139 RLU
3,B2,314 RLU
4,B3,16900 RLU

# Target: recombinant soluble homotrimeric HA of A/Vietnam/1203/04 (H5N1) (Influenza A virus A/VietNam/1203/2004(H5N1))
# Test: HA microarray, BCC supernatant
# Conditions: remark: other sources report otherwise
row,Binder,Trimeric HA Binding: RLU
1,B4,146 RLU
2,B1,63 RLU
3,B2,21300 RLU
4,B3,45600 RLU

# Target: recombinant soluble homotrimeric HA of A/chicken/Vietnam/NCVD-016/08 (H5N1) (Influenza A virus A/chicken/Vietnam/NCVD-016/2008(H5N1))
# Test: HA microarray, BCC supernatant
# Conditions: remark: other sources report otherwise
row,Binder,Trimeric HA Binding: RLU
1,B4,287 RLU
2,B1,70 RLU
3,B2,27000 RLU
4,B3,38200 RLU

# Target: recombinant soluble homotrimeric HA of A/Indonesia/5/05 (H5N1) (Influenza A virus A/Indonesia/5/2005(H5N1))
# Test: HA microarray, BCC supernatant
# Conditions: remark: other sources report otherwise
row,Binder,Trimeric HA Binding: RLU
1,B1,31 RLU
2,B2,23800 RLU
3,B3,42800 RLU

# Target: recombinant soluble homotrimeric HA of A/Wisconsin/67/05 (H3N2) (Influenza A virus A/Wisconsin/67/2005(H3N2))
# Test: HA microarray, BCC supernatant
# Conditions: remark: other sources report otherwise
row,Binder,Trimeric HA Binding: RLU
1,B4,35000 RLU
2,B1,728 RLU
3,B2,5720 RLU
4,B3,48800 RLU

# Target: recombinant soluble homotrimeric HA of A/Anhui/1/05 (H5N1) (Influenza A virus A/Anhui/1/2005(H5N1))
# Test: HA microarray, BCC supernatant
# Conditions: remark: other sources report otherwise
row,Binder,Trimeric HA Binding: RLU
1,B4,543 RLU
2,B1,25 RLU
3,B2,21400 RLU
4,B3,49800 RLU

# Target: recombinant soluble homotrimeric HA of A/Japan/305/57 (H2N2) (Influenza A virus A/Japan/305/1957(H2N2))
# Test: HA microarray, BCC supernatant
# Conditions: remark: other sources report otherwise
row,Binder,Trimeric HA Binding: RLU
1,B4,121 RLU
2,B1,2970 RLU
3,B2,19300 RLU
4,B3,46400 RLU

# Target: recombinant soluble homotrimeric HA of A/northern shoveler/California/HKWF115/07 (H6) (Influenza A virus A/northern shoveler/California/HKWF115/2007(H6N1))
# Test: HA microarray, BCC supernatant
# Conditions: remark: other sources report otherwise
row,Binder,Trimeric HA Binding: RLU
1,B4,2210 RLU
2,B1,131 RLU
3,B2,30300 RLU
4,B3,46800 RLU

# Target: recombinant soluble homotrimeric HA of A/Netherlands/219/03 (H7N7) (Influenza A virus A/Netherlands/219/03(H7N7))
# Test: HA microarray, BCC supernatant
# Conditions: remark: other sources report otherwise
row,Binder,Trimeric HA Binding: RLU
1,B4,976 RLU
2,B1,381 RLU
3,B2,8890 RLU
4,B3,49300 RLU

# Target: recombinant soluble homotrimeric HA of A/California/4/09 (H1N1) (Influenza A virus A/California/04/2009(H1N1))
# Test: HA microarray, BCC supernatant
# Conditions: remark: other sources report otherwise
row,Binder,Trimeric HA Binding: RLU
1,B4,151 RLU
2,B1,57 RLU
3,B2,28000 RLU
4,B3,48800 RLU

# Target: recombinant soluble homotrimeric HA of A/duck/Yangzhou/02/05 (H8N4) (Influenza A virus A/duck/Yangzhou/02/2005(H8N4))
# Test: HA microarray, BCC supernatant
# Conditions: remark: other sources report otherwise
row,Binder,Trimeric HA Binding: RLU
1,B4,436 RLU
2,B1,117 RLU
3,B2,28800 RLU
4,B3,38400 RLU

# Target: recombinant soluble homotrimeric HA of A/swine/Ontario/01911-2/99 (H4N6) (Influenza A virus A/Swine/Ontario/01911-2/99 (H4N6))
# Test: HA microarray, BCC supernatant
# Conditions: remark: other sources report otherwise
row,Binder,Trimeric HA Binding: RLU
1,B4,79 RLU
2,B1,178 RLU
3,B2,7690 RLU
4,B3,47500 RLU

# Target: recombinant soluble homotrimeric HA of A/Solomon Islands/3/06 (H1N1) (Influenza A virus A/Solomon Islands/3/2006(H1N1))
# Test: HA microarray, BCC supernatant
# Conditions: remark: other sources report otherwise
row,Binder,Trimeric HA Binding: RLU
1,B1,64 RLU
2,B2,16500 RLU
3,B3,44800 RLU

# Target: recombinant soluble homotrimeric HA of A/Hong Kong/2108/03 (H9N2) (Influenza A virus A/HK/2108/2003(H9N2))
# Test: HA microarray, BCC supernatant
# Conditions: remark: other sources report otherwise
row,Binder,Trimeric HA Binding: RLU
1,B4,1570 RLU
2,B1,22 RLU
3,B2,16000 RLU
4,B3,42000 RLU
